From article PMC7176406

Biological target: tau (residues 149-395) labeled with Alexa Fluor 488 at C291 (human) (UniProt P10636)
Test: fluorescence correlation spectroscopy

UniProt P10636, sequence (P10636 466-712 C639S): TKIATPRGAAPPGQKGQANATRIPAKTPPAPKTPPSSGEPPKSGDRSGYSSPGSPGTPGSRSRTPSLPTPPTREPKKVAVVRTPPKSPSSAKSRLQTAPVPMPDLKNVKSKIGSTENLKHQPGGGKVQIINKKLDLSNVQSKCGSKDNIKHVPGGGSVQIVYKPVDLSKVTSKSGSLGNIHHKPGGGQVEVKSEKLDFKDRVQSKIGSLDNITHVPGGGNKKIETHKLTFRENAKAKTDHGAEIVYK

- fold weaker affinity than intact tubulin: 5 fold
- maximum increase in diffusion time of tau: 0.15 ms
Substance: tailless tubulin (subtilisin-cleaved bovine brain tubulin) (from UniProt Q6B856 1-445) (complex)
